In US20250011363A1, “OPTIMIZED SHORTENED PEPTIDE THAT BINDS TO ACETYLCHOLINE RECEPTOR, AND USE THEREOF” (SKINMED CO., LTD., priority 2021, published 2025):

target: acetylcholine receptor; experiment: SPR, AchR immobilised on CM5 chip, peptide at 10 uM

Binding affinity (RU) | Binder
23 | KMENR [5mer-857]
29 | KDTPK [5mer-1169]
25 | RCKVK [5mer-870]
31 | RCHAK [5mer-860]
32 | KTHEK [5mer-1166]
27 | RDAPR [5mer-1153]
25 | KETDR [5mer-1149]
26 | KTNAR [5mer-1151]
18 | RFMKK [5mer-855]
28 | KHSEK [5mer-1170]
29 | RKKWK [5mer-872]
17 | RFSMR [5mer-877]
33 | RFPWR [5mer-1164]
17 | RCDKK [5mer-880]
13 | KYDIR [5mer-850]
23 | KPPDR [5mer-856]
30 | KECKR [5mer-1173]
31 | KKHPK [5mer-869]
31 | KKCIR [5mer-888]
21 | RNMNR [5mer-1165]
33 | RIMGR [5mer-858]
18 | REEGR [5mer-882]
15 | KIKKK [5mer-1162]
25 | KIHFK [5mer-1176]
30 | KTPVR [5mer-887]
21 | RMMFR [5mer-886]
12 | KFTNR [5mer-1150]

Binding affinity (RU) | Binder
18 | RMNVR [5mer-1179]
15 | REKWK [5mer-1182]
28 | KIWEK [5mer-884]
12 | KCWVR [5mer-1154]
16 | KMSAK [5mer-883]
24 | KHTER [5mer-878]
31 | RNDAK [5mer-881]
16 | REANR [5mer-863]
22 | KDSMK [5mer-852]
20 | KIPVR [5mer-1177]
22 | KKAKR [5mer-1181]
14 | KDSWK [5mer-867]
13 | RHAPK [5mer-1183]
21 | RNTER [5mer-854]
21 | KCHDR [5mer-1161]
21 | KTSHR [5mer-1157]
25 | KYSGK [5mer-1174]
25 | KYHPR [5mer-864]
27 | KETAK [5mer-1180]
12 | KKSKR [5mer-1163]
18 | KENFK [5mer-1152]
30 | RDMIR [5mer-1175]
19 | RHCNR [5mer-885]
30 | KPSGK [5mer-1188]
19 | KKNAK [5mer-862]
21 | RCSWK [5mer-1171]
31 | RHHWR [5mer-1168]

Binding affinity (RU) | Binder
12 | KESWK [5mer-1167]
25 | KIWWR [5mer-1172]
20 | KTKIR [5mer-861]
22 | RFDNR [5mer-1178]
14 | RDSMK [5mer-1184]
25 | RYDMK [5mer-1155]
17 | KKWKK [5mer-1159]
18 | KMHFK [5mer-868]
14 | KETWR [5mer-1160]
27 | KHHIR [5mer-1187]
27 | RIHMR [5mer-874]
33 | KHCNK [5mer-875]
13 | KKMNK [5mer-1156]
11 | RINWR [5mer-866]
19 | KMCWK [5mer-851]
12 | KMWVK [5mer-1186]
13 | KDCMK [5mer-879]
21 | RHSHR [5mer-871]
30 | KPTGR [5mer-1185]
16 | KETAR [5mer-876]
26 | KHNAR [5mer-859]
13 | RYHIK [5mer-853]
21 | RMMER [5mer-865]
32 | RYNFR [5mer-873]
23 | KYNPR [5mer-1158]
